The assay concerns the target FZDs (endogenous Frizzled receptors of the cells used: HEK293T cells; CSPG4 KO HeLa cells). Description: cell-based or functional assay.

“TcdB^GFE (full length TcdB with 1595VNFLQS replaced by GFE) (from UniProt P18177 1-2366)” showed a toxicity on CSPG4 KO HeLa cells, cell-rounding assay (CR50), against WT TcdB of 190 fold.
